Assay results published in the nanobody polyreactivity screen of Harvey et al. (2022).

Test: yeast display, Sf9 membrane polyspecificity reagent, FACS + sequencing; frameworks hold sequencing errors
Outline: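 In a synthetic yeast display library (Saccharomyces cerevisiae BJ5465), nanobody expression was induced with galactose for 36–48 hours. FACS gates were set low and high (top ~1%) using anti-HA fluorescence for expression and streptavidin fluorescence for binding of the Sf9 membrane reagent. Each polyreactivity label is drawn from the gate of origin.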

| Sequence | polyreactivity (PSR sort gate) |
| --- | --- |
| QVQLVESGGGLVQAGGSLRLSCAASGSIFGWYVMGWYIQAPGKERELVAAISSVGSTYYADSVKGRFTISRDNAKNTVYLQMKSLKPEDTAVYYCAKLRYPYLFWDDSEYWGQGTQVTVSS | low polyreactivity |
| QVQLVESGGGLVQAGGSLRLSCAASGRTFYYYAMGWYRQAPGKEREFVASITWRGGRTYYADSVKGRFTISRDNAKNTVYLQMNSLKPEDTAVYYCAADGSYAIGGYGYWGQGTQVTVSS | high polyreactivity |
| QVQLVESGGGLVQAGGSLRLSCAASGLIFRAYAMGWYRQAPGKETELVAAITWNGGSTNYADSVKGRFTISRDNAKNTVYLQMHSLKPEDTAVYYCAAGSSRVFRKAGITRPSGLYYYWGQGTQVTVSS | high polyreactivity |
| QVQLVESGGGLVQAGGSLRLSCASSGRTFVFYAMGWYRHAPGKERELVAAITSGTSTNYADSVKGRFTISRDNAKNTVYLQMISLKPEDTAVYYCAAYWTDVTYSIGFGYWGQGTQVTVSS | low polyreactivity |
| QVQLVESGGGLVQAGGSLRLSCAASGRIFFRYAMGWYRQAPGKERELVAAISYSGGSTYYADSVKGRFTISRDNAKNTVYLQMNSLKPDDTAVYYCATGPVYEYDYWGQGTQVTVSS | low polyreactivity |
| QVQLVESGGGLVQAGGSLRLSCAASGRIFGRYTMGWYRQAPGKERELVAAISARGGSTYYADSVKGRFTISRDNAKNTVYLQMNSLKPEDTAVYYCNTVRVHGFPIDRIYDYWGQGTQVTVSS | high polyreactivity |
| QVQLVESGGGLVQAGGSLRLSCAASGRTIGQNAMGWYRQAPGKERELVAAISASGSNTYYADSVKGRFTISRDNAKNTVYLQMNSLKPEDTAVYYCAKQVYRPGQQSRYDYWGQGTQVTVSS | low polyreactivity |
| QVQLVESGGGIVQAGGSLRLSCAASGFIFGPYTMGWYRQAPGKERELVAAINNSGSTNYADSVKGRFTISRDNAKNTVYLQMNSLKPEDTAVYYCAAEPIIFVRYDYWGQGTHVTVSS | low polyreactivity |
| QVQLVESGGGLVQAGGSLRLSCAASGRIFSIYAMGWYRQAPGKERELVAAISKRGGSTSYADSVKGRFTISRDNAKNTVYLQMNSLKPEDTAVYYCNARGWIPARGWDDYYWGQGTQVTVSS | high polyreactivity |
| QVQLVESGGGLVQAGGSLRLSCAASGITFRFYALGWYRKAPGKEREFVAAISSRGGRTYYADSVKGRFTISRDHAKNTVYLQMNSLKPEDTAVYYCAADFYYRTVATVTSVARYDYWGQGTQVTVLS | high polyreactivity |
| QVQLVESGGGLVQAGGSLRLSCAASGRTFRTNDMGWYRQAPGKERELVARITRGGSTYADSVKGRFTISRDNAKNTVYLHMNSLKPEDTAVYYCAAVTKLSGIRYNYWGQGTQVTVSS | low polyreactivity |
| QVQLVESGGGLVQAGGSLRLSCAASGFTFRRYAMGWYRQAPGKERELVAGITGRGGSTYYADSVKGRFTISRDNSKNTVYLQMNSLKPEDTAVYYCNKPRAARGYLTGQLDYWGQGTQVTVSS | high polyreactivity |
| QVQLVESGGGIVQAGGSLRLSCAASGFTFRYNTMGWYRQAPGKERELVAAITSRGTSTYYADSVKGRFTISRDNAKNTVYLQMYSLKPEDTAVYYCNKVYFKGTTRLSVSVYKLEYWGQGTQVTVSS | high polyreactivity |
| QVQLVESGGGLVQAGGSLRLSCAASGITFTRYGMGWYRQAPGKERELVAVISSSGGRTYYADSVKGRFTISRDNAKNTVYLQMNSLKPEDTAVYYCATVRVLAKYRPKMDYWGQGTQVTVSS | high polyreactivity |
| QVQLVESGGGLVQAGGSLRLSCAASGIIFLENAMGWYRQAPGKERELVAGISSGGNTNYADSVKGRFTISRDNAKNTVYLQMNSLKPEDTALYYCNKFGYHREYDYWGQVTQVTVSS | low polyreactivity |
| QLQLVESGGGLVQAGGSLRLSCAASGFIFHRNAMGWYRQAPGKERELVAAISGSGGSTYYADSVNGRFTISRDNAKNTVYLQMNSLKPEDTAVYYCAKRGRSTYGYDYWGQGTQVNVSS | high polyreactivity |

| Sequence | polyreactivity (PSR sort gate) |
| --- | --- |
| QVQLVESGGGLVQAGGSLRLSCAASGITFPRNAMGWYRQAPGKERELVAAISARGGNTYYADSVKGRFTISRDNSKNTGYLQMIRLKPEDTAVYDCNALGSSFSEPSEYDYWGQGTQVTVSS | low polyreactivity |
| QVQLVESGGGLVQAGGSLRLSCAASGFTFYYYAMGWYRQAPGKERELVAAINRSGGSTYYADSVKGRFTISRDNAKNTVYLQMNSLKPEDTAVYYCNKRLLVSRSSAQPYGYWGQGTQVTVSS | high polyreactivity |
| QVQLVESGGGLFQAGGSLRLSSAASGSIFINNGMGWYRQAPGKESELVAAIYSGGSTYADSVKGRFTISRDNAKNTVYLQMNSLKPEDTAVYYCAVDVWLRGLYGYEYDYWGQGTQVTVSS | low polyreactivity |
| QDQLVESGGGLVQAGGSLRLSCAASGSTFFRNAMGWYRQAPGKERELVASITSGGNTKYADSVKGRFTISCDNAKNTVYVQMNSLKPEDTAVYYCAAQFYHFARYSRLYNSWGQGTQVTVSS | low polyreactivity |
| QVQLVESGGGLVQAGGSLRLSCAASGRILTLYAMGWYRQAPGKERELVAGINRGDVSTYYADSVKGRFTISRDNAKNSVYLQMNSLKPEDTAVYYCYADPPPDYYPDKDNYWGQGSQVTVSS | low polyreactivity |
| QVQLVESGGGLVQAGGSLRLSCAASGSTFWYYAMGWYRQAPGKERELDADITYSGVSTYYADSVKGRFTISRDNAKNTVYLQMNSLKPEDTAVYYCYADWGSVNGYAGYYYWGQGTQVTVSS | low polyreactivity |
| QVQLVESGGGLVQAGGSLRLSCAASGIIFARNAMGWYRQAPGKERELVAAISSRSGSTYYADSVKGRFTISRDNAKNTVYVQMNSLKPEDTAVYYCNAVYAGRFGSHYWGQGTQVTVSS | high polyreactivity |
| QVQLVESGGGLVQAGGSLRLSCAASGITFEGYALGWYRQAPGKERELVAAIRSSGTSTYYADSVKGRFTISRDNAKNTVYLQMNSLKPEDTAVYYCNRARSSSRYDYWGQGTQVTVSS | low polyreactivity |
| QVQLVESGGGLVQAGGSLRLSCAASGFTFESNAMGWYRQAPGKERELVAAITSSGGRTYYADSVKGRFTISRDNAKNTVYLQMNSLKPEDTAVYYCAATGKAPRESGGVYSMDWGQGTQVTVSS | low polyreactivity |
| QVQLVESGGGLVQAGGSLRLSCAASGSTFPGNAMGGSRQAAGKERELVASISGGGDSTYYADSVKGRFTISRDNAKNTVYLQMNSRKPEDTAVYYCAADYRQEPGYTGYYYWGQGTQVTVSS | low polyreactivity |
| QVQLVESGGGLVQAGGSLRLSCAASGSTFHYYAMGWYRQAPGKERELVAAISSGGRTNYADSVKGRFTISRDNAKNTVYLQMNSLKPEDTAVYYCAARWSYTKGEFDYWGQGTQGTVSS | high polyreactivity |
| QVQLVESGGGLVQAGGSLRLSCAASGIIFTVYAMGWYRQAPGKERELVAAITWSGGSTYYADSVKGRFTISRDNAKNTVYLQMNSLKPEDTAVYYCNKVGRVWDVETDGDYDYWGQGTQVTVSS | low polyreactivity |
| QVQLVESGGGLVQAGGSLRLSCAASGSIFAHYAMGWYRQAPGKERELVAAISWGGGRTYYADSVKGRFTISRDNAKNTVYLQMNSLKPEDTAVYYCAARAANKSNYWGQGTQVTVSS | low polyreactivity |
| QVQLVESGGGLFQAGGSLRLSCAASGRTFGKNAMGWYRQAPGKEREFVAAITSRGGSTYYADSVKGRFTISRDNAKNTVYLQMNSLNPEDTGVYYCNREYKRPSQRNEHFYCGQGTQVTVSS | low polyreactivity |
| QVQLVESGGGLVQAGGSLRLSCAASGSTFPPNAMGWYRQAPGKERELVAAISASGGRTYYADSVKGRFTISRDNAKNTVYLQMNSLKPEDTAVYYCNARGGRYGRGSSDQLDYYWGQGTQVTVSS | high polyreactivity |
